# Test results taken from publication PMC4434323.
# Biological target: T1, nhr-204 (R02C2.4) (Caenorhabditis elegans) (UniProt O44543)
# T1 sequence: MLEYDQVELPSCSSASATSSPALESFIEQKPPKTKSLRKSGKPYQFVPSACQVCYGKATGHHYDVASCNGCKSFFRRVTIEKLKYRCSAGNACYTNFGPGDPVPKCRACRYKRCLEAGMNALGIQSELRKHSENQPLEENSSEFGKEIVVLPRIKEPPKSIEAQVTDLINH
row,Sequence,binding signal (PBM E-score (-0.5 to 0.5))
1,ATTGGTCA (double strand) [8-mer ATTGGTCA],0.477

# Biological target: lin-48 (F34D10.5) (Caenorhabditis elegans) (UniProt G5EDU6)
# Sequence (G5EDU6 83-280): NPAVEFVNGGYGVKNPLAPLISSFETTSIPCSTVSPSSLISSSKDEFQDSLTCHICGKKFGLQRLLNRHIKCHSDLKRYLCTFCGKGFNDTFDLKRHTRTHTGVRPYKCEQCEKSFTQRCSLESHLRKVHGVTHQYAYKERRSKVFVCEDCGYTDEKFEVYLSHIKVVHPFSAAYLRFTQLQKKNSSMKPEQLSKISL
row,Sequence,binding signal (PBM E-score (-0.5 to 0.5))
1,CCGTTACA (double strand) [8-mer CCGTTACA],0.486
2,TAACGGGA (double strand) [8-mer TAACGGGA],0.49
3,CCGTTATA (double strand) [8-mer CCGTTATA],0.494
4,GTAACGGA (double strand) [8-mer GTAACGGA],0.485
5,TAACGGTA (double strand) [8-mer TAACGGTA],0.494
6,CCGTTATC (double strand) [8-mer CCGTTATC],0.49
7,GACCGTTA (double strand) [8-mer GACCGTTA],0.496
8,ACCGTTAG (double strand) [8-mer ACCGTTAG],0.489
9,ACCGTTAC (double strand) [8-mer ACCGTTAC],0.497
10,ACCGTTAT (double strand) [8-mer ACCGTTAT],0.493
11,AACCGTTA (double strand) [8-mer AACCGTTA],0.49
12,GTCCGTTA (double strand) [8-mer GTCCGTTA],0.487
13,ATAACGGA (double strand) [8-mer ATAACGGA],0.485
14,AGTAACGG (double strand) [8-mer AGTAACGG],0.487
15,ATAACGGG (double strand) [8-mer ATAACGGG],0.494

# Biological target: T2, Y44A6D.3 (Y44A6D.3) (Caenorhabditis elegans) (UniProt Q9XXE0)
# T2 sequence: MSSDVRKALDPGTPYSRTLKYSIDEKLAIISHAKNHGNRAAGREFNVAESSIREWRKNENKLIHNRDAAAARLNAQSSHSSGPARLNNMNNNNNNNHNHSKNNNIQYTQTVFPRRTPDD
row,Sequence,binding signal (PBM E-score (-0.5 to 0.5))
1,ATGCGCGG (double strand) [8-mer ATGCGCGG],0.494
2,GCTGCGCA (double strand) [8-mer GCTGCGCA],0.494
3,GCCGCGCA (double strand) [8-mer GCCGCGCA],0.494
4,ACCGCGCA (double strand) [8-mer ACCGCGCA],0.495
5,CCGCGCAG (double strand) [8-mer CCGCGCAG],0.495
6,CTGCGCAG (double strand) [8-mer CTGCGCAG],0.496
7,ACTGCGCA (double strand) [8-mer ACTGCGCA],0.498
8,CCTGCGCA (double strand) [8-mer CCTGCGCA],0.493
9,ATGCGCAG (double strand) [8-mer ATGCGCAG],0.493
10,CCGCGCAC (double strand) [8-mer CCGCGCAC],0.496
11,CTGCGCAA (double strand) [8-mer CTGCGCAA],0.495
12,GGTGCGCA (double strand) [8-mer GGTGCGCA],0.493
13,TCCGCGCA (double strand) [8-mer TCCGCGCA],0.495

# Biological target: odd-2 (C34H3.2) (Caenorhabditis elegans) (UniProt Q9N5X6)
# Sequence (Q9N5X6 74-252): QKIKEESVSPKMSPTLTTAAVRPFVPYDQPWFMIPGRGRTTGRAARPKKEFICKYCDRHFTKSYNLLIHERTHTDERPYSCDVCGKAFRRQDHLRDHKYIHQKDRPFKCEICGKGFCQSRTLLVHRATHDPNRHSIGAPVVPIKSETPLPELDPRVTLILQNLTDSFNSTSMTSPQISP
row,Sequence,binding signal (PBM E-score (-0.5 to 0.5))
1,ACAGTAGC (double strand) [8-mer ACAGTAGC],0.499
2,CGGTAGCC (double strand) [8-mer CGGTAGCC],0.485
3,CAGTAGCA (double strand) [8-mer CAGTAGCA],0.495
4,ACGGTAGC (double strand) [8-mer ACGGTAGC],0.498
5,CAGTAGCC (double strand) [8-mer CAGTAGCC],0.492
6,AGCTACTG (double strand) [8-mer AGCTACTG],0.492
7,AGCTACCG (double strand) [8-mer AGCTACCG],0.492
8,CCGGTAGC (double strand) [8-mer CCGGTAGC],0.496

# Biological target: T3, F13H6.1 (F13H6.1) (Caenorhabditis elegans) (UniProt H2KZR6)
# T3 sequence: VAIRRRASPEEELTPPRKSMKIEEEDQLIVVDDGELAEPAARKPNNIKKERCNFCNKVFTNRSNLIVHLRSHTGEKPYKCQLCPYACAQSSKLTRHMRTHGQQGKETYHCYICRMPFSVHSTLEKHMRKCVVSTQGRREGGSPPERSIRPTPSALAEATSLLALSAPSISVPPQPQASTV
row,Sequence,binding signal (PBM E-score (-0.5 to 0.5))
1,CTTGACCA (double strand) [8-mer CTTGACCA],0.496
2,AGTGACCA (double strand) [8-mer AGTGACCA],0.498
3,ACTGACCA (double strand) [8-mer ACTGACCA],0.497
4,CTGACCAC (double strand) [8-mer CTGACCAC],0.495
5,GAGTGACC (double strand) [8-mer GAGTGACC],0.496
6,AGTGGTCA (double strand) [8-mer AGTGGTCA],0.497
7,GTTGACCA (double strand) [8-mer GTTGACCA],0.494
8,AATGACCA (double strand) [8-mer AATGACCA],0.496
9,ATTGGTCA (double strand) [8-mer ATTGGTCA],0.495
10,GGTGGTCA (double strand) [8-mer GGTGGTCA],0.494
11,AAGTGACC (double strand) [8-mer AAGTGACC],0.494
12,GTGGTCAA (double strand) [8-mer GTGGTCAA],0.496
13,GATGACCA (double strand) [8-mer GATGACCA],0.494
14,ACTGGTCA (double strand) [8-mer ACTGGTCA],0.495
15,AATGGTCA (double strand) [8-mer AATGGTCA],0.495

# Biological target: T4, che-1 (C55B7.12) (Caenorhabditis elegans) (UniProt Q966L8)
# T4 sequence: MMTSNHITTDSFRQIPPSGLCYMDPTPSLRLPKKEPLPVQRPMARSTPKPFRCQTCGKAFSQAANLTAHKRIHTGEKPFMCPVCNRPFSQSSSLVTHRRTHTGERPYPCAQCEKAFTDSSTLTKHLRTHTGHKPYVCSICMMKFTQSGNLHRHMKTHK
row,Sequence,binding signal (PBM E-score (-0.5 to 0.5))
1,GGGCTTCA (double strand) [8-mer GGGCTTCA],0.493
2,GGAAGCCC (double strand) [8-mer GGAAGCCC],0.495
3,AAGAAGCC (double strand) [8-mer AAGAAGCC],0.493
4,GGCTTCCC (double strand) [8-mer GGCTTCCC],0.497
5,AGGCTTCC (double strand) [8-mer AGGCTTCC],0.491
6,ATGGCTTC (double strand) [8-mer ATGGCTTC],0.495
7,AGAAGCCA (double strand) [8-mer AGAAGCCA],0.489
8,GGAAGCCA (double strand) [8-mer GGAAGCCA],0.494
9,AGAAGCCC (double strand) [8-mer AGAAGCCC],0.491
10,AGGAAGCC (double strand) [8-mer AGGAAGCC],0.49
11,GAAGCCCC (double strand) [8-mer GAAGCCCC],0.492
12,AGGGCTTC (double strand) [8-mer AGGGCTTC],0.497
13,ATGAAGCC (double strand) [8-mer ATGAAGCC],0.489
14,AAGGCTTC (double strand) [8-mer AAGGCTTC],0.494

# Biological target: pag-3 (F45B8.4) (Caenorhabditis elegans) (UniProt G5EDE1)
# Sequence (G5EDE1 76-311): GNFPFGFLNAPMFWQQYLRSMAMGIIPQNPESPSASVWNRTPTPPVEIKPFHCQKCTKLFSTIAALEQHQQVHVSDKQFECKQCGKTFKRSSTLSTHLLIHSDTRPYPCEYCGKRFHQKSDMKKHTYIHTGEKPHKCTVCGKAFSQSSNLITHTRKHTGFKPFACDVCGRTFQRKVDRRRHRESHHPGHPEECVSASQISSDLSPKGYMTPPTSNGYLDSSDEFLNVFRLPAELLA
row,Sequence,binding signal (PBM E-score (-0.5 to 0.5))
1,AAATCTGG (double strand) [8-mer AAATCTGG],0.493
2,CAAATCAC (double strand) [8-mer CAAATCAC],0.487

# Biological target: T5, F10B5.3 (F10B5.3) (Caenorhabditis elegans) (UniProt Q09534)
# T5 sequence: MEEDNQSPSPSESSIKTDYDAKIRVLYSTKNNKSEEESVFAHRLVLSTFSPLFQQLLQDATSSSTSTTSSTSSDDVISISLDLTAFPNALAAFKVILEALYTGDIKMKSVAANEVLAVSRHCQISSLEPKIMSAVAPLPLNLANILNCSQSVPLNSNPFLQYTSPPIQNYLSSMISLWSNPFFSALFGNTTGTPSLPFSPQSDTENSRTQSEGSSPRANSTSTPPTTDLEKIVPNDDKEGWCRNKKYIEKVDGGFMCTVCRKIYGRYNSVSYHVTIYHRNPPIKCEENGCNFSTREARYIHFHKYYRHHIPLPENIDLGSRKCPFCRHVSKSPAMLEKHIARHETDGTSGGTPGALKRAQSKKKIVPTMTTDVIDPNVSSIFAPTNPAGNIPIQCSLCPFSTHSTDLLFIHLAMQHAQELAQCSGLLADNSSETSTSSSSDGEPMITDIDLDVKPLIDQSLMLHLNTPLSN
row,Sequence,binding signal (PBM E-score (-0.5 to 0.5))
1,GTTCCAGA (double strand) [8-mer GTTCCAGA],0.473
2,TCTGGAAA (double strand) [8-mer TCTGGAAA],0.487
3,ATTTCCAG (double strand) [8-mer ATTTCCAG],0.473
4,TCCACGAA (double strand) [8-mer TCCACGAA],0.476
5,CCTCGAAA (double strand) [8-mer CCTCGAAA],0.474
6,TTCCGGAA (double strand) [8-mer TTCCGGAA],0.49
7,TACACGAA (double strand) [8-mer TACACGAA],0.476
8,TCGTGGAA (double strand) [8-mer TCGTGGAA],0.483
9,TTCGAGAA (double strand) [8-mer TTCGAGAA],0.477
10,TCCTGGAA (double strand) [8-mer TCCTGGAA],0.491
11,CCTGGAAA (double strand) [8-mer CCTGGAAA],0.48
12,CTGGAAAA (double strand) [8-mer CTGGAAAA],0.475
13,TCCTCGAA (double strand) [8-mer TCCTCGAA],0.481
